From patent US20040213794 come the findings set out here.

This data set deals with myelin basic protein (MBP).

For the substance “Mst1 (mammalian sterile 20-like kinase-1), full length 61 kD form, endogenous in neonatal rat cardiac myocytes”, the “in gel kinase assay (MBP as substrate)” value is “activation of the full length (61 kD) and cleaved (34 kD) forms of Mst1 after 6 hr Doxo stimulation of cardiac myocytes”. The same measure for “Mst1, cleaved 34 kD form (amino-terminal half containing the N-terminal kinase domain), in neonatal rat cardiac myocytes”: “activation of the full length (61 kD) and cleaved (34 kD) forms of Mst1 after 6 hr Doxo stimulation of cardiac myocytes”.
